Test results taken from patent WO2022250107A1 (dated 2022).

Target: S protein of SARS-CoV-2 wild strain JPN/TY/WK-521 (on infectious virus) (SARS-CoV-2, UniProt P0DTC2 14-1273)
Assay: cell-based or functional assay

B1: EV053273 (antibody, V domains shown)
VH: QVQLVQSGAEVKEPGTSVKVSCKASGYIFTGYYIHWVRQAPGQGLEWMGWINPNSGGRNYTQKFQGRVTMTRDKSISTVYMELSGLRSDDTAIYYCARDNSWSTVQFCLDYWGQGTLVTVSS
VL: QSALTQPPSASGSPGQSVTISCTGTSSDVGSYNYVSWYQQYPGKAPKLMIYEVSKRPSGVPDRFSGSKSGNTASLTVSGLQAEDEADYYCSSYGGSNNLVFGGGTKLTVLG
  中和活性 IC50 (inhibition of infection of VeroE6/TMPRSS2 cells): ≤ 10 ng/mL
